Assays:
HLA-A2.1 = HLA-A2.1 (Homo sapiens, UniProt P04439, D140Y/D185E/D98H/E176V/E277Q/G131W/G231S/I119V/I121R/I166T/I218V/L300P/L318F/N151K/N90K/P208A/P217A/Q86G/Q94H/R138H/R169H/T345S); experiment: HLA-A*0201 binding assay (stabilization of surface HLA-A2.1 on T2 cells, flow cytometry); details: for binding to HLA-A2.1: T2 cells, peptide 6.25-800 μg/ml, compared with control peptides
HLA-A1+ CD8+ T cells = experiment: gamma-IFN-based ELISPOT assay; format: cell-based, human; details: IFN production blocked by anti-HLA-A1 monoclonal antibody
Description: The wells of a nitrocellulose-backed microtiter plate were coated with capture antibody by incubating overnight at 4° C. using 50 μl/well of 4 μg/ml murine anti-human −IFN monoclonal antibody in coating buffer (35 mM sodium bicarbonate, 15 mM sodium carbonate, pH 9.5). Unbound antibody was removed by washing 4 times 5 min. with PBS. Unbound sites on the membrane then were blocked by adding 200 μl/well of RPMI medium with 10% serum and incubating 1 hr. at room temperature. Antigen stimulated CD8^+ T cells, in 1:3 serial dilutions, were seeded into the wells of the microtiter plate using 100 μl/well, starting at 2×10^5 cells/well. […] Following this incubation the plates were washed with 6 times 200 μl/well of PBS containing 0.05% Tween-20 (PBS-Tween). Detection antibody, 50 μl/well of 2 μg/ml biotinylated murine anti-human −IFN monoclonal antibody in PBS+10% fetal calf serum, was added and the plate incubated at room temperature for 2 hrs. Unbound detection antibody was removed by washing with 4 times 200 μl of PBS-Tween. 100 μl of avidin-conjugated horseradish peroxidase (Pharmingen, San Diego, Calif.) was added to each well and incubated at room temperature for 1 hr. Unbound enzyme was removed by washing with 6 times 200 μl of PBS-Tween. […] The plate was air dried and the spots counted using a stereomicroscope.
No reactivity is detected from cultures without peptide (data not shown).

peptide pulsed T2 cells = experiment: Epitope specific lysis by CTL from peptide-immunized HHD-A2 mice; format: in vivo; details: HHD-A2 mice immunized with peptide in complete Freund's adjuvants, spleen cells re-stimulated in vitro; HLA-A2+ T2 targets
Text: HHD-A2 mice were immunized with ED-B29-38 (SEQ ID NO. 103) in complete Freund's adjuvants and spleen cells were harvested and re-stimulated in vitro using standard methodology.

[1] = target: T1, HLA-A2.1 (HLA-A*0201) on T2 cells (human); experiment: T2 cell HLA-A2.1 stabilisation, flow cytometry with FITC anti-HLA-A2
T1 construct: MHC class I molecule on T2 cells; also called HLA-A2+ T2 cells

| Molecule | binding to HLA-A2.1 (HLA-A2.1) | also measured |
| --- | --- | --- |
| GLPSIPVHPI (Homo sapien) [SEQ ID NO 21] | significant binding at even lower concentrations than the positive control peptides | – |
| GMPEGDLVYV (Homo sapien) [SEQ ID NO 6] | significant binding at even lower concentrations than the positive control peptides | – |
| MMNDQLMFL [SEQ ID NO 39] | significant binding at even lower concentrations than the positive control peptide | – |
| RMMNDQLMFL (Homo sapien) [SEQ ID NO 40] | significant binding at even lower concentrations than the positive control peptide | binding activity / affinity by comparison to the controls (HLA-A2.1; not run in parallel): approaches the Melan A peptide in affinity |
| RVDCTPLMY [SEQ ID NO 35] | – | HLA restriction of the response (HLA-A1+ CD8+ T cells): HLA-A1-restricted response |
| TIIGYRITVV (Homo sapien) [SEQ ID NO 103] | – | epitope specific lysis by CTL (peptide pulsed T2 cells): able to specifically lyse peptide pulsed T2 cells |
| TLRVDCTPL (Homo sapien) [SEQ ID NO 32] | binds nearly as well | – |
| MMNDQLMFL [PSMA663-671] | – | binding result [1]: binds |

Reference: patent US7252824B2, “Anti-neovasculature preparations for cancer” (Mannkind Corporation, priority 2001, dated 2007)
